Here are results for 2 molecules from article PMC8842248 (Journal of Medicinal Chemistry, 2022).

What all share (settings): both partners purified
One experiment has as its target T1, PDE6D M20K, untagged (UniProt O43924 1-150, M20K).
T1 construct: PDE6D with M20K; Printed as 'untagged PDE6D.M20K' in the pulldown and release assay; also called attenuated PDE6D
Nature of the experiment: fluorescence polarisation; fluorescein-labeled KRAS S3I1 peptide at 5 nM, PDE6D 0-512 nM in twofold dilutions; 20 mM Tris pH 7.5, 150 mM NaCl, 2 mM DTT; quadratic fit in GraFit.

Experiment [1] addresses T2, PDE6D (phosphodiesterase 6 delta), wild type, polyhistidine tag removed (UniProt O43924 1-150).
T2 construct: Cloned into pRSF-Duet and pBDDB-SPR3; also called PDE6D WT; WT PDE6D; source: E. coli BL21 DE3, purified (HisTrap, TEV protease, reverse HisTrap, Superdex S75)
The description is as above.

In experiment [2] the target is T2, PDE6D (phosphodiesterase 6 delta), wild …. Nature of the experiment: fluorescence polarisation; fluorescein-…(OMe)-Far at 500 nM, PDE6D 20 to 0.156 μM in twofold dilutions, without or with compound at 500 μM; 20 mM Tris pH 7.5, 150 mM NaCl, 2 mM DTT, 5% DMSO.

*: point of attachment. fluorescein = fluorescein label on the N-terminus; Farnesyl = CC(C)=CCC/C(C)=C/CC/C(C)=C/C*; FAM = fluorescein

B1: KRAS S3I1 peptide, fluorescein-DGKKKKKKSSTIC(OMe)-farnesyl (peptide)
peptide: fluorescein-DGKKKKKKSSTIC(Farnesyl)-OMe
notes: also called KRAS S3I1 variant; source: synthetic peptide (JPT Innovative Peptide Solutions)
As for B1, the Kd was 2.62 ± 1.7 nM with PDE6D M20K, untagged and 0.05 nM in experiment [1].

B2: fluorescein-labeled KRAS HVR peptide, FAM-KKKKKKSKTKC(OMe)-Far (peptide)
peptide: {FAM}-KKKKKKSKTKC(Farnesyl)-OMe
notes: wild-type KRAS (KRAS4B) HVR peptide ending at the farnesylated C185; also called KRAS WT peptide
For B2, the binding result in experiment [2] was “binds”.
